The results in this text go back to patent US20160264663A1 (published 2016).

Test [1] addresses T1, human podocalyxin (human).
T1 chain: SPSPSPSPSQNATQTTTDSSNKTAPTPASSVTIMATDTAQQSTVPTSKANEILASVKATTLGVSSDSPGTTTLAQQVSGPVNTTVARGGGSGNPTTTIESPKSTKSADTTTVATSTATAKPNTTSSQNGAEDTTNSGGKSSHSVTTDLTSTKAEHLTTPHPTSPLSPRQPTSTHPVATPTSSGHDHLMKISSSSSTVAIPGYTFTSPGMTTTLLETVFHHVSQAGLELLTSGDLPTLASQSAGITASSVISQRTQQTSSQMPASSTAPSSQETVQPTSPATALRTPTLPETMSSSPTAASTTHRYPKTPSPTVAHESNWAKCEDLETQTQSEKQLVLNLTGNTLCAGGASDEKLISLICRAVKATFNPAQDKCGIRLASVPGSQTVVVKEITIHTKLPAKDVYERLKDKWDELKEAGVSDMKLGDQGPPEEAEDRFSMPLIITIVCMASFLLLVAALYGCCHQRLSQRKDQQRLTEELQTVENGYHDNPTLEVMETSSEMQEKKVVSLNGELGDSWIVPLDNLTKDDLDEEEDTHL
Description: flow cytometry, isotype control, OVCAR10 cells. On the technique in general: Flow cytometry measures light scatter and fluorescence of single cells or particles in a stream.

In test [2] the target is T1, human podocalyxin. Description: flow cytometry, isotype control, OVCAR3 cells.
Test [3] has as its target T1, human podocalyxin. The test can be described thus: flow cytometry, isotype control, 293 HEK cells.
In test [4] the target is T1, human podocalyxin. Description: flow cytometry, isotype control, HUVEC cells.
Test [5] concerns the target T1, human podocalyxin. The test can be described thus: flow cytometry, isotype control, T47-D cells.
The target of test [6] is T1, human podocalyxin. Description: flow cytometry, isotype control, SKOV3 cells.
The target of test [7] is T1, human podocalyxin. The test can be described thus: flow cytometry, isotype control, CaOV3 cells.
The target in test [8] is T1, human podocalyxin. Description: flow cytometry, isotype control, MCF7 cells.
For test [9], the target named is T1, human podocalyxin. The test can be described thus: flow cytometry, isotype control, A172 cells.
Test [10] concerns the target T1, human podocalyxin. The test can be described thus: flow cytometry, isotype control, MDA-MB-231 cells.
Test [11] concerns the target T1, human podocalyxin. Description: flow cytometry, control, 1:5, MDA-MB-231 cells.
Test [12] deals with T1, human podocalyxin. The test can be described thus: flow cytometry, control, 2:15 (so in the source), MDA-MB-231 cells.
Test [13] deals with T1, human podocalyxin. The test can be described thus: flow cytometry, control, neat, hPodo/MDA-MB-231 transient transfectants.
Test [14] has as its target T1, human podocalyxin. Description: flow cytometry, control, 1:5, hPodo/MDA-MB-231 transient transfectants.
The target in test [15] is T1, human podocalyxin. The test can be described thus: flow cytometry, control, 2:15 (so in the source), hPodo/MDA-MB-231 transient transfectants.
Test [16] deals with T1, human podocalyxin. Description: flow cytometry, control, neat, MDA-MB-231 cells.
For test [17], the target named is T1, human podocalyxin. Description: flow cytometry, control, 1:125, hPodo/MDA-MB-231 transient transfectants.
Test [18] deals with T1, human podocalyxin. The test can be described thus: flow cytometry, control, 1:125, MDA-MB-231 cells.
The target of test [19] is human podocalyxin (human). Description: flow cytometry, supernatant neat, hPodo/MDA-MB-231 transient transfectants.
Test [20] deals with human podocalyxin (human). Description: flow cytometry, supernatant 1:5, hPodo/MDA-MB-231 transient transfectants.
Test [21] concerns the target human podocalyxin (human). Description: flow cytometry titration on 293-6E cells (endogenous podocalyxin), 48 hours at 4 C.
Test [22] has as its target human podocalyxin (human). Description: flow cytometry titration on 293-6E cells (endogenous podocalyxin), 24 hours at 4 C.
Test [23] concerns the target human podocalyxin (human). Description: flow cytometry, 5 ug/mL antibody, OVCAR3 cells.
For test [24], the target named is human podocalyxin (human). Description: flow cytometry, supernatant neat, MDA-MB-231 cells.
The target in test [25] is human podocalyxin (human). Description: flow cytometry, supernatant 1:125, hPodo/MDA-MB-231 transient transfectants.
Test [26] concerns the target human podocalyxin (human). Description: flow cytometry, 5 ug/mL antibody, T47-D cells.
Test [27] concerns the target human podocalyxin (human). The test can be described thus: flow cytometry, OVCAR10 cells.
Test [28] addresses human podocalyxin (human). Description: flow cytometry, MDA-MB-231 cells.
The target of test [29] is human podocalyxin (human). The test can be described thus: flow cytometry, 5 ug/mL antibody, HUVEC cells.
The target of test [30] is human podocalyxin (human). The test can be described thus: kinetic exclusion assay (KinExA 3200), A172 cells. In general terms: A kinetic exclusion assay measures how much of one partner remains free in solution.
Test [31] concerns the target human podocalyxin (human). The test can be described thus: flow cytometry, 293 HEK cells.
Test [32] has as its target human podocalyxin (human). The test can be described thus: flow cytometry, 5 ug/mL antibody, MCF7 cells.
The target of test [33] is human podocalyxin (human). The test can be described thus: flow cytometry, 5 ug/mL antibody, A172 cells.
The target of test [34] is human podocalyxin (human). Description: flow cytometry, HUVEC cells.
The target in test [35] is human podocalyxin (human). Description: flow cytometry, supernatant 1:5, MDA-MB-231 cells.
For test [36], the target named is human podocalyxin (human). The test can be described thus: flow cytometry, 5 ug/mL antibody, OVCAR10 cells.
For test [37], the target named is human podocalyxin (human). Description: FACS on MDA-MB-231 cells; biotinylated antibody 5 ug/mL, no competitor (FACS Buffer row).
Test [38] concerns the target human podocalyxin (human). Description: flow cytometry, A172 cells.
For test [39], the target named is human podocalyxin (human). The test can be described thus: FACS, hPodo/MDA cells (MDA-MB-231 transfected with human podocalyxin cDNA).
For test [40], the target named is human podocalyxin (human). The test can be described thus: flow cytometry, 5 ug/mL antibody, 293 cells.
For test [41], the target named is human podocalyxin (human). Description: flow cytometry, 5 ug/mL antibody, CaOV3 cells.
For test [42], the target named is human podocalyxin (human). Description: flow cytometry, supernatant 2:15 (so in the source), hPodo/MDA-MB-231 transient transfectants.
For test [43], the target named is human podocalyxin (human). Description: flow cytometry, SKOV3 cells.
The target in test [44] is human podocalyxin (human). The test can be described thus: flow cytometry, supernatant 2:15 (so in the source), MDA-MB-231 cells.
Test [45] concerns the target human podocalyxin (human). The test can be described thus: flow cytometry, OVCAR3 cells.
In test [46] the target is human podocalyxin (human). The test can be described thus: flow cytometry, CaOV3 cells.
In test [47] the target is human podocalyxin (human). The test can be described thus: flow cytometry, 5 ug/mL antibody, MDA-MB-231 cells.
Test [48] has as its target human podocalyxin (human). The test can be described thus: flow cytometry, MCF7 cells.
For test [49], the target named is human podocalyxin (human). Description: flow cytometry, T47-D cells.
The target in test [50] is human podocalyxin (human). Description: kinetic exclusion assay (KinExA 3200), MDA-MB-231 cells.
Test [51] has as its target human podocalyxin (human). Description: flow cytometry, supernatant 1:125, MDA-MB-231 cells.

Consider MsIgG2a (antibody), for which the Live cell GeoMean FL (geometric mean fluorescence units) in the test with human podocalyxin [1] is 618; in the test with human podocalyxin [2], 708; with human podocalyxin [3] it was 556; with human podocalyxin [4], 484; with human podocalyxin [5], 787; in the test with human podocalyxin [6], 485. For the same molecule, the Live cell GeoMean FL (geometric mean fluorescence units) is 892 in the test with human podocalyxin [7], 1130 with human podocalyxin [8], 797 in the test with human podocalyxin [9] and 478 in the test with human podocalyxin [10].
For the molecule Rb IgG (antibody), the FACS signal (name not given) with human podocalyxin [11] came out at 467; in the test with human podocalyxin [12], 438; with human podocalyxin [13], 762; in the test with human podocalyxin [14], 660; with human podocalyxin [15], 617; in the test with human podocalyxin [16], 574. For the same molecule, the FACS signal (name not given) was 645 with human podocalyxin [17] and 431 with human podocalyxin [18].

B1: Rb/Hu Podo83 (Podo83 rabbit VH and VL, human IgG1 chimera) (antibody, V domains shown)
VH: CQSLAESGGRLVTPGTPLTLTCTASGIDLSSYAMGWVRQAPGKGLEYIGFIYASGSIFYASWAKGRFTISKTSSTTVDLKMTSLTTEDTATYFCARAGYYFGGNYDLNLWGQGTLVTVSS
VL: DIVLTQTPASVEVAVGGTVTIKCQASQSISNYLAWYQRKPGQPPRLLIYRASTLASGVSSRFKGSGSGTQFTLTISGVECADAATYYCQQGYVSNNLDNIFGGGTEVVVK
modifications: human IgG1/kappa constant regions
As a reminder, the EC50 is the concentration needed to bring the measured effect to its halfway point. The low end stands for a more potent agent, the high end for a less potent agent. For orientation: Kd means the concentration at which binding is half-saturated. Read a low Kd as a tighter complex. Turning to B1, the FACS signal (name not given) in test [19] amounted to 79000; in test [20], 99300; in test [24] it was 143000; in test [25] it was 58500; in test [35] it was 121000; in test [37] it was 139000. The FACS signal (name not given) in test [39] was determined as 178000; in test [42], 155000; in test [44], 102000; in [51], 50600. Moreover, the EC50 (half-maximal binding) in [21] was determined as 0.0305 µg/mL. Further, the EC50 in test [22] was determined as 0.0295 µg/mL. Moreover, the Live cell GeoMean FL (geometric mean fluorescence units) in test [23] was 16500; in [26], 1500; in test [27], 1530; in test [28] it was 88900; in test [29], 44600; in test [31] it was 28200. Also, the Live cell GeoMean FL (geometric mean fluorescence units) in test [32] is 60800; in test [33], 170000; in test [34] it was 24500; in [36] it was 2820; in test [38], 224000; in [40], 28200. Moreover, the Live cell GeoMean FL (geometric mean fluorescence units) in [41] worked out at 48800; in test [43] it was 59800; in test [45], 28600; in test [46], 23400; in test [47], 91900; in test [48], 28400. In addition, the Live cell GeoMean FL (geometric mean fluorescence units) in [49] was 1130. Besides, the Kd was determined as 0.103 nM in test [30] and 0.0456 nM in test [50].
